Results reported in the DeepSol protein solubility set.

experiment: soluble on expression in E. coli; label from the status in PepcDB or PDB records

Soluble on expression in E. coli, not soluble:
MGSDKIHHHHHHMAHLSYSPPRNFDALYRQRVFQSHQAVRMHDAAARELADHSLTWRSGNVDAALYKARARRLTLFSFRYGAEVEIAPRPSEEFIVVHHSIRGAAELSVDGQHMVLPQGRTGWMAPRRNWRMRWEAGCEQLILKIPRDMIEAGGIAPMAPLATLPAGLDTQWLLLVQVLLGASSAPTCAGEPAAWVEHIEQGLASLLRAASSCSLPRESSDRNFVARDPIARLQAMEDYMRERLGAPIGLADLSGAAGVSARVLQQTCQRHRQMSPMELLRDMRLDAVHAWLSEHPSANITETALFYGFGHLGRFAAYYRQRFGESPHQTAQRRCCALS, MGSDKIHHHHHHMAIEITTAEKRLLQRVSIPPRPETLLTVSREAKKSEPDVNVIAESISADMSIAAAVLQVVNSAAYRRAREVDSIQQAVMTLGFRRVFPIVRAVALKSALTSDYDLSEFWRYNEWVAGACVMIAEAIGRPELRDHAYMLGLFQSSGIPVMLAEFDDYADLLNAAESTPWQQVQAKELELFQTSHTTIGALLAQQWKLPKIVVEVIYYLFEDSSIFNHSSELDNLTLDLLGILKISRYAIDLRTRSLAGEEEWQYVQDGVLEHFQIDEFKVDEMLQIVHEELFDTEA, MGSDKIHHHHHHMAIIKASTAASVAELTTDIDQQLPQLKAKPFSHELLTTSILTMLGTAAFVGIHHRYRKQHLADARVQDYVRGIYSQMNALQSASHSRSMLRHFRYSCQQAASTWQQAYRLPMNDKQSNSSGLATNNFSAMHTTTMLARPVCWVSGVASMPKDISLINEDNENDFGVVGIDADREVVWQTTMPERVHDIVVQPVFRYEDNTVSNHLNHRQSRDVVVMGRRPSEKFWVLDTATGQVRFAINAATNRHFYGHACYSLDGSKLYVTENDTLSLDGKIGAYAVDKGYQKIAEFDSYGIGPHELIMHPDGETLIIANGGIKTEQASREELNLDTMHPSLVYLNRHDGSLLEQITPEHNQMSVRHLAMHDDGTVMIGIQFQGEKHINVPLVLTHKRGDIKLTPLTMPNNQWQRFHQYIASVAVDSKCNLLCVTTPIGGCAAIFDLTTRALINSVSLPDCAGASIYSRKTGSGKGSVDAEQKSGFIVSDGQGQLTRLSVNDLTILDSELNSDAIAKNNTIGTDIKCHMMSFDNHLQAL, MGSDKIHHHHHHMAIVNRIALDLAKDFIQVLALDENEQEVFNKKLRSNKVLAKLATLSRTDDCEVAVESCGMSHYWRRECEKLGYKTVALPPRFVKAYLQGEKNDANDARAIAEAASRPNRQTVRLKSIEQQDLALMVNQREGFVQTRTQFSNRLRGQLAEYGILLPKRVGTILQRVPEVLEDDSNALTLQSRDLINRLYQMLRAVDEEVKALDKHLATQAERNEDSQRLMTLPGIGPITATSLLALIGDVSEFKRGRNLSEYLGLVPRQNSSGGKDRLGGITKKGNTKLRTLLVHGARSALRVAQQRHDRLSLWAQDVAKRRGNNVAAVALANKHARIIWAMLKNKEDYRMTAA, MGSDKIHHHHHHMAKLMNNKLKKEIIDFAHSIGIDSIGFTTADPFDELKQKLEEYHAKGYASGFEESNISLRTEPKLSLPSARSIIAIAVGYPNKLKGAPKSVKGDRRGMFARASWGQDYHSIMRKRLDKLADFIKEKVPDVEIQSMVDTGVLSDRAVAERAGLGFTGRNGFVISPELGTWSYLGEMLVSIPFEPDDPLLDSCGDCTICVDRCPTGALVGNGQLNSQKCISFLTQTKGYLQDEYRYKIGNRLYGCDTCQQVCPKNRGINTQHDDIVLEPEILKPRLVPLLQMSNKKFKSTYGHLAGAWRGKKPIQRNAIIALAHFKEESAIPELKEVALNDPRPMIRGTAYWAIGQILEDDAISFIDEHYENEIEEVQLEMKKGLQMRREQK, MGSDKIHHHHHHMALKHYKNSDSTVFNDAKALFDLNKNILLKGPTGSGKTKLAETLSEVVDTPMHQVNCSVDLDTESLLGFKTIKTNAEGQQEIVFVDGPVIKAMKEGHILYIDEINMAKPETLPVLNGVLDYRRQITNPYTGEVIKAVPGFNVIAAINEGYVGTLPMNEALKNRFVVIHVDYIDGDILKNVIKEQSLLQDDKQIEQIIKFNEDLRTMSKQGQISEEAASIRALLDLCDLITVMPVERAIKRTIIDKLEDEREQQAIYNAVELNF, MGSDKIHHHHHHMALLTAETFRLQFNNKRRLRRPYYPRKALLCYQLTPQNGSTPTRGYFENKKKCHAEICFINEIKSMGLDETQCYQVTCYLTWSPCSSCAWELVDFIKAHDHLNLGIFASRLYYHWCKPQQKGLRLLCGSQVPVEVMGFPEFADCWENFVDHEKPLSFNPYKMLEELDKNSRAIKRRLERIKS, MGSDKIHHHHHHMALRIAFLTVGDPQRRTGGYLYHREVFRCWQARNQPVEEIVLGPADVAGQIAASNRAGQLVEAGRYDVIVVDALARAVVAPWLAHWQRLCPLVTLVHELPTVAGASDPREYEWEQMLLRADALVAVSDDGANTLIARGVEAARIHIASGGCDRLLSRMPVGKAREELVIAVAQWIPRKNLAHLVRVWGQVAEHPWRLELIGESDADPVYAGEVWQAIQHCPANVIVRGVLADDELAERYARASLFALPSRFEGYGLVFAEALACGLPVIAGAVGPVPALVGAGGMLVHPDDEQALSVALRTVMRDAHLRQHLSTAARQRASTLPRWQDTAQHLLCAIEWAYAQRHRVST, MGSDKIHHHHHHMANMKNSNDRIILFRKAGEKVDATKMLFLTEYGLSHEADTDTEDTMDGSYNTGGSVESTMSGTAKMFYGDDFADEIEDAVVDRVLYEAWEVESRIPGKNGDATKFKAKYFQGFHNKFELKAEANGIDEYEYEYGVNGRFQRGFATLPEAVTKKLKATGYRFHDTTKADALTGEDLTAIPQPKVDSSTVTPGEV, MGSDKIHHHHHHMANVIKLHKGLNINLKGKPAQEFFDVKQPDIYAIVPDDFHGVTPKVVVKEQEYVTAGGTLFVDKNHPEVKFVSPVSGVVTSVERGERRKVLSISIAAAKEQDYEEFGKKDVSTLTGEQVKAALLEAGLFSFIIQRPYIVVADPNAKPKGIFVSAFDTNPLAADFEFVLKGQEKDFQTGLDALAKMAKTYLNISVEQKSPALTNAKNVTVTAFDGPNPAGNVGVQINHISPINKGETVWTLRAEEVIFIGRLFNTGRVDLTRTIALTGSEVKKPAYCKLKVGALLTDIFAGRVNGGKNLRYINGNVLTGTLVKPNGFLGAHATSLTVIPEGDDRHEFLGFIMPRTDQYSANRSYFSWLCGNKEYTLDARIKGGERHMIMSGEYDKVFPMSIFPEYLIKAIIAGDIDRMEALGIYEVAPEDFAVCEFVDSSKLELQRIVRQGLDMLRKEMC, MGSDKIHHHHHHMAQNFHDNSQVSSEMSTAISRTAKPSSEFYSIFSEEEILGIICALEIRREIPLKYSYKGRGAKIWDDFYQKYIIPRWYRISNVEIELLKSNFKYFNDNIKSGEKINIVDVGAGNSYPVKDFVQRLNKLNKINKYVALDISEELLNLSKNNFKKWFPNVEFISSTIDIENNCVPKTLFQNNPDLEMDNTAKIFLHLGVTIGNHQNRDKVFKNFRESMGKNDFLVFTNEIGSNSKWDGNVRGGCKYHVEEIYGWVKNKVGIESEGCELVRKYDLKTDSIVANIRFNHDYTINFSRMGIDKKIEISEGEEITIWRHHKYEMPKLLQELERSGLQLIQYSTDKYKSHIMVICKISSN, MGSDKIHHHHHHMAQQTPLYEQHTLCGARMVDFHGWMMPLHYGSQIDEHHAVRTDAGMFDVSHMTIVDLRGSRTREFLRYLLANDVAKLTKSGKALYSGMLNASGGVIDDLIVYYFTEDFFRLVVNSATREKDLSWITQHAEPFGIEITVRDDLSMIAVQGPNAQAKAATLFNDAQRQAVEGMKPFFGVQAGDLFIATTGYTGEAGYEIALPNEKAADFWRALVEAGVKPCGLGARDTLRLEAGMNLYGQEMDETISPLAANMGWTIAWEPADRDFIGREALEVQREHGTEKLVGLVMTEKGVLRNELPVRFTDAQGNQHEGIITSGTFSPTLGYSIALARVPEGIGETAIVQIRNREMPVKVTKPVFVRNGKAVA, MGSDKIHHHHHHMAQSDKDLTLTPLKGKSGQAYIGTYPNGDKIFVKINTTPILAALAKEQIAPQLLWAKRLGNGDMMSAQEWLDGRLLTRADMNSKQIIQVLLQMHKSKPLVNQLLQLNYKVETPLDLLLSWERSAPYQISENAYLQSVVAEMKRNLPDFKKDYATIVHGDVRHSNWVITTSGLVYLVDWDSVRVTDRMYDVAHILSHYIPHTRWVEWLSYYGYKQNTKVFQKIKWYGQLSYLSQILKYYENRDMENVNQEIYELRKFRESF, MGSDKIHHHHHHMARHALMRTELLPTFGMPDKKVDGFIARIRERHPKMIFGYPSAMSHIVPCAEQRGVRFDDLGIKVVFCTSERLYNHQRETIVRLFGCPVANGYGGRDAGFIAHECPNGNMHVITEDIVVEIIGEAGRVLPHRQSGKIVVTHLATRDYPFIRYRTGDIASLSEETCSCGRGLPLLTDIQGRNTDFVVAAEGTVLHGLALIYVVHDLNEVRTFKIVRKNREHTRILLAPEAGGDMTGIDTIIIDGFRCRLGAKVTVKFVDAVLAEKSGKFCYVASHVVLH, MGSDKIHHHHHHMASESWMKTQAPDPTNLPAEINPEVPSIARVYDYFLGGKDNFPADRAAAAAVEKVFPQGKQLGRESRMLLRRATRELVRAGVRQFLDIGSGLPTAGNVHEIAHEIDPEVRVVYIDNDPVVLAHGRALLADEVTTTVVQADLRHPDGIFDNPEVRALLDFDQPVAVFLASILHHFDDSDDPWALSRKIRDRISSGSYMLITHFYDSGDPVCREVEQALLEGGLGSGWFRTKEQIERFFEGMDVLEPGVVAANEWRPDAETPTDSTTHHLLAGGLARKP, MGSDKIHHHHHHMASKATSIDIAYRAGVSQSTVSRALRNSPLVNLETRQRIQAIAKELNYKVDKNASNLRMQNSHTLALLICEDPTNDESMINPFFLSMLGSITRATARQGYDLLVSFQQLSTDWHADYEDSNKADGIILLGYGDYMDYAHKLDKLIEKNTHFVIWGAEHNNKAVLSIGCDNHQGGFVATEHLLGLGHKHIAFLGDSSSRSPEFRDRYLGHVDALQSTGIEADTQLQHDAINTEASGYHAANVLLDSGVTFDAIFTASDLIAIGAIRALKKRGVLVPEQVAVVGYDDIPVASFANPALTTIKQDTQFAGEILVESVLKLIRGQEVSQRLIKTHLVVRSSCGANVEDN, MGSDKIHHHHHHMATEIIYMVKDWFEWHDLYKNEPKLQQRLQIVQEYISYSLNLPEPGLIRVVSVCAGDGRDLLGTLSNHPRAKDVYARLVELNPHLVERGQQTIESLGLTKQIEFINGDATLSSNYLGAVPADIVIVCGVFGNLADEAELNRLLANLSFLSKQGAFVIWTRGHSNGIPHSETVRKFFREYGFEEVNFKLTATGDMGVGIHRYLGESLAAPKEQQFFAFTGVPSKAR, MGSDKIHHHHHHMATGSNIRTYFQGSWHEGDAPIIRAADHGAWLGSGVFDGARYFDGMAPDLEAHCARVNRSAEALMLTPTVSTQDMVEIVREGLKAYGPDQAVYIRPMYWGIDGDPTAIIPQADSTGFAVCLEEIPMAPATASATLTTTRFRRPVLEDAVVNAKAGCLYPNNARMLREARSKGFTNALVADALGNVAETATANIFMVKDGEVFTPIANGTFLAGITRARHIKNLRADGVPVHETVLSFADFHAADEVFMSGNMSKVTPVTALDDTQYQIGPIARRARALYWDWAKSTA, MGSDKIHHHHHHMATIDLIVLGIVKQQPKSAYDIQKAVEYRNISRWVKISTPSIYKKVIQLEQKGYIESKTVKNGKMPEKAVYSLTELGETHFLDLMFDTSSKPINILLDFNAVIVNLNSLTPEKQKLCLNNIEENVQELKKTIEENISIKTEVPETAKAVLEQQLVLAQALETWINSLKDNTGN
